Measured values as given in IntAct's records for PubMed 26388029.

B1: Ubiquitin carboxyl-terminal hydrolase 1 (Homo sapiens), O94782 (parent)
chain: MPGVIPSESNGLSRGSPSKKNRLSLKFFQKKETKRALDFTDSQENEEKASEYRASEIDQVVPAAQSSPINCEKRENLLPFVGLNNLGNTCYLNSILQVLYFCPGFKSGVKHLFNIISRKKEALKDEANQKDKGNCKEDSLASYELICSLQSLIISVEQLQASFLLNPEKYTDELATQPRRLLNTLRELNPMYEGYLQHDAQEVLQCILGNIQETCQLLKKEEVKNVAELPTKVEEIPHPKEEMNGINSIEMDSMRHSEDFKEKLPKGNGKRKSDTEFGNMKKKVKLSKEHQSLEENQRQTRSKRKATSDTLESPPKIIPKYISENESPRPSQKKSRVKINWLKSATKQPSILSKFCSLGKITTNQGVKGQSKENECDPEEDLGKCESDNTTNGCGLESPGNTVTPVNVNEVKPINKGEEQIGFELVEKLFQGQLVLRTRCLECESLTERREDFQDISVPVQEDELSKVEESSEISPEPKTEMKTLRWAISQFASVERIVGEDKYFCENCHHYTEAERSLLFDKMPEVITIHLKCFAASGLEFDCYGGGLSKINTPLLTPLKLSLEEWSTKPTNDSYGLFAVVMHSGITISSGHYTASVKVTDLNSLELDKGNFVVDQMCEIGKPEPLNEEEARGVVENYNDEEVSIRVGGNTQPSKVLNKKNVEAIGLLGGQKSKADYELYNKASNPDKVASTAFAENRNSETSDTTGTHESDRNKESSDQTGINISGFENKISYVVQSLKEYEGKWLLFDDSEVKVTEEKDFLNSLSPSTSPTSTPYLLFYKKL

Variants of: B1
Conditions: with WDR48, Q8TAF3-1
WDR48, Q8TAF3-1, sequence (Q8TAF3 whole entry): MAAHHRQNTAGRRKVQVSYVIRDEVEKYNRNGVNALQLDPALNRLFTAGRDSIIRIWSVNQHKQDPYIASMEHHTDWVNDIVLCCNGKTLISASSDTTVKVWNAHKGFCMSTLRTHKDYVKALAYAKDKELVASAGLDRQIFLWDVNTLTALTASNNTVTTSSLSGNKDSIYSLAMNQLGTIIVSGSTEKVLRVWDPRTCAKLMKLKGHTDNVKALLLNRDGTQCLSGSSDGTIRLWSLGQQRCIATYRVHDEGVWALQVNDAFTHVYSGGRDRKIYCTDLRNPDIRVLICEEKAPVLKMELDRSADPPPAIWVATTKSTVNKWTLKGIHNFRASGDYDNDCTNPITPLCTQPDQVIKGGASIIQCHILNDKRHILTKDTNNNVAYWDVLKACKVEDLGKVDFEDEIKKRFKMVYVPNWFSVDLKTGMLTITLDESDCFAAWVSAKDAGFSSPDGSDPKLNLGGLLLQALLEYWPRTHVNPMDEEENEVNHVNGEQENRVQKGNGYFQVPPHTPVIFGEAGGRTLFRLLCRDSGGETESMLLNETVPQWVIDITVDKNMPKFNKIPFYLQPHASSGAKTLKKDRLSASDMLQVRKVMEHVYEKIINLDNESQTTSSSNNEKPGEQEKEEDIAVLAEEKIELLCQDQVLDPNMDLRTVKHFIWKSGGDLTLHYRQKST

effect of a mutation on the interaction	Variant
disrupting interaction strength	E444K
